# Test results from article PMC10979513 (Progress in neurobiology, 2024).
# Target: T1, recombinant μ4 C-terminal domain (human, residues 160–453) (human, UniProt O00189 160-453)
# T1 sequence (looked up): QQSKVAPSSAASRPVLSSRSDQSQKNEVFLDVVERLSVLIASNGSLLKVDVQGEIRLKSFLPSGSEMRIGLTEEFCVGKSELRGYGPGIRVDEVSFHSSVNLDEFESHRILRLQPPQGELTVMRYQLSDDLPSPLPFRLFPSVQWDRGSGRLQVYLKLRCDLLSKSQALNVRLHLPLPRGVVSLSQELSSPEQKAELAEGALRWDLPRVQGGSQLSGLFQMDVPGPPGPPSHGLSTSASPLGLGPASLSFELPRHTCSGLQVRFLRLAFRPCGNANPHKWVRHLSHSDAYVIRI
# Experiment: ITC
binder,measurement,value
YPAAISSFDR [ApoER2 peptide YPAAISSFDR],Kd,26.2 µM
